One block for each molecule: values may come before it.
Legend:
human PD-L1.his Protein [1] = target: T1, human PD-L1.his Protein (human, UniProt Q9NZQ7 19-238, limits assumed); experiment: ELISA, coated human PD-L1.his, absorbance at 450 nm; upper table
T1 construct: Produced in-house (Genscript); also called HuPD-L1-his; not shown: his tag

human PD-L1.his Protein [2] = target: T1, human PD-L1.his Protein; experiment: ELISA, coated human PD-L1.his, absorbance at 450 nm; lower table
human PD-L1.his Protein [3] = target: T1, human PD-L1.his Protein; experiment: GATOR instrument kinetics, HuPD-L1-his; reference parental antibody AHP01679
human PD-L1.his Protein [4] = target: T1, human PD-L1.his Protein; experiment: GATOR instrument kinetics, HuPD-L1-his
human PD-L1 on CHO cells [5] = target: T2, human PD-L1 on CHO cells (human, UniProt Q9NZQ7 19-290); experiment: cell-based or functional assay
T2 sequence (Q9NZQ7 19-290): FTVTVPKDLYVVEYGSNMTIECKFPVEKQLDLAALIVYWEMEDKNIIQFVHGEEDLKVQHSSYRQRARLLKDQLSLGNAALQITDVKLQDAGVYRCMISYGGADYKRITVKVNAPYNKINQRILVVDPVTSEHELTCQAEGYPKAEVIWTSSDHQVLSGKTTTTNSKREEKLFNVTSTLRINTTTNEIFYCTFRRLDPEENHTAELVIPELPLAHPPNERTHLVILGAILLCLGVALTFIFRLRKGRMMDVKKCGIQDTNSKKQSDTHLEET

human PD-L1.his Protein [6] = target: T1, human PD-L1.his Protein; experiment: SPR Biacore T200, antibody Fc-captured, antigen as analyte
Description: The affinity of purified antibody binding to antigen was individually determined using a Surface Plasmon Resonance (SPR) biosensor, BiacoreT200 (GE Healthcare). Antibodies were immobilized on the sensor chip through Fc capture method. Antigen was used as the analyte. The data of dissociation (kd) and association (ka) rate constants were obtained using Biacore T200 evaluation software. The equilibrium dissociation constants (KD) were calculated from the ratio of kd over ka.

human PD-L1 on CHO cells [7] = target: T2, human PD-L1 on CHO cells; experiment: cell-based or functional assay; remark: listed apart in the source
human PD-L1.his Protein [8] = target: T1, human PD-L1.his Protein; experiment: ELISA, coated human PD-L1.his, absorbance at 450 nm
Description: To evaluate the fully human IgGs binding activity to human PD-L1 protein, ELISA EC50 determination was performed. Briefly, human PD-L1.his protein was coated with 0.5 μg/ml in CBS, 100 μl/well at 4° C., incubated for overnight. Washed three times and blocking with 3% BSA-PBS at 37° C. for 1 hour. Then diluted fully human IgGs in 1% BSA-PBS were added to the blocked wells. […] Incubation at room temperature for 2 hours. […] The plates were washed for additional 6 times and the substrate solution were added to the wells for developing reaction. The absorption was measured at 450nm using a spectrometer.

T1 sequence (Q9NZQ7 19-238 limits assumed): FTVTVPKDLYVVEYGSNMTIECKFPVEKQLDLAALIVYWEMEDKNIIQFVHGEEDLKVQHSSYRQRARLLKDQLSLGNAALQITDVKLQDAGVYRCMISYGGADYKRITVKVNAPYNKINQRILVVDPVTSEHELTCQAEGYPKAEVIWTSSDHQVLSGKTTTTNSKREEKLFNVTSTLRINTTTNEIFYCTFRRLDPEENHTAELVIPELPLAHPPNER

absorbance at 1.3717 ng/ml (human PD-L1.his Protein [1]): 0.078
absorbance at 4.1152 ng/ml (human PD-L1.his Protein [1]): 0.052
absorbance at 37.0370 ng/ml (human PD-L1.his Protein [1]): 0.052
absorbance at 111.1111 ng/ml (human PD-L1.his Protein [1]): 0.054
absorbance at 333.3333 ng/ml (human PD-L1.his Protein [1]): 0.058
absorbance at 1000 ng/ml (human PD-L1.his Protein [1]): 0.069
absorbance at 3000 ng/ml (human PD-L1.his Protein [1]): 0.121
absorbance at 0.00564503 ng/ml (human PD-L1.his Protein [2]): 0.058
absorbance at 0.01693509 ng/ml (human PD-L1.his Protein [2]): 0.067
absorbance at 0.05080526 ng/ml (human PD-L1.his Protein [2]): 0.061
absorbance at 0.15241579 ng/ml (human PD-L1.his Protein [2]): 0.064
absorbance at 0.45724737 ng/ml (human PD-L1.his Protein [2]): 0.057
absorbance at 1.37174211 ng/ml (human PD-L1.his Protein [2]): 0.065
absorbance at 12.345679 ng/ml (human PD-L1.his Protein [2]): 0.064
absorbance at 37.037037 ng/ml (human PD-L1.his Protein [2]): 0.059
absorbance at 111.111111 ng/ml (human PD-L1.his Protein [2]): 0.067
absorbance at 333.333333 ng/ml (human PD-L1.his Protein [2]): 0.059
absorbance at 1000 ng/ml (human PD-L1.his Protein [2]): 0.081
Molecule: negative control human IgG (antibody)

KD (Parental Ab)/KD (Candidate Ab) (human PD-L1.his Protein [3]): 1 fold
Kd (human PD-L1.his Protein [4]): 0.351 nM
koff (human PD-L1.his Protein [4]): 0.00132 s⁻¹
kon (human PD-L1.his Protein [4]): 3.77e+06 M⁻¹ s⁻¹
EC50 (read off the curve), PD-1/PD-L1 blockade luciferase reporter assay [panel E] (human PD-L1 on CHO cells [5]): ~0.2 µg/mL
EC50, PD-1/PD-L1 blockade luciferase reporter assay [panel E] (human PD-L1 on CHO cells [5]): 0.153 µg/mL
Kd (human PD-L1.his Protein [6]): 4.09 nM
koff (human PD-L1.his Protein [6]): 0.00259 s⁻¹
kon (human PD-L1.his Protein [6]): 635000 M⁻¹ s⁻¹
EC50 (assay not named; EC50 is defined in paragraph 62 as the concentration of antibody required to block binding of PD-1/PD-L1 by 50%) (human PD-L1 on CHO cells [7]): 0.163 µg/mL
EC50 (human PD-L1.his Protein [8]): 0.00334 µg/mL
B1: AHP01679 (antibody, human IgG1, lambda, V domains shown)
VH: EVQLVQSGAEVKKPGSSVKVSCKASGGTFSSYAISWVRQAPGQGLEWMGRIIPILGIANYAQKFQGRVTITADKSTSTAYMELSSLRSEDTAVYYCTTFIQQWLYAFDIWGQGTMVTVSS
VL: QAVLTQPSSVSGAPGQRVTISCTGSSSNIGAGYDVHWYQQLPGTAPKLLIYGNNNRPSGVPDRFSGSKSGTSASLAITGLQAEDEADYYCQSYDSSLSGSVFGGGTKLTVLG
notes: Fully human full-length IgG (IgG1 constant region, lambda light chain); also called Parental Ab; parental antibody

KD (Parental Ab)/KD (Candidate Ab) (human PD-L1.his Protein [3]): 10.4 fold
Kd (human PD-L1.his Protein [4]): 0.0338 nM
koff (human PD-L1.his Protein [4]): 0.000145 s⁻¹
kon (human PD-L1.his Protein [4]): 4.29e+06 M⁻¹ s⁻¹
EC50 (assay not named; EC50 is defined in paragraph 62 as the concentration of antibody required to block binding of PD-1/PD-L1 by 50%) (human PD-L1 on CHO cells [7]): 0.0966 µg/mL
B2: QJ001-45 (antibody, human IgG1, lambda, V domains shown)
VH: EVQLVQSGAEVKKPGSSVKVSCKASGGTFSSYAISWVRQAPGQGLEWMGRIIPILGIANYAQKFQGRVTITADKSTSTAYMELSSLRSEDTAVYYCTTFFQQWLYAFDIWGQGTMVTVSS
VL: QAVLTQPSSVSGAPGQRVTISCFGSSSNIGAGYDVHWYQQLPGTAPKLLIYGNNNRPSGVPDRFSGSKSGTSASLAITGLQAEDEADYYCGSYDSSLSGSVFGGGTKLTVLG
notes: also called P02897

From patent US20250223361A1 (MABTREE BIOLOGICS, published 2025)
